These results are taken from patent publication US8048659.

Data set [1] has as its target T1, EuMac-Peptide-PEGA beads (Formula XII).
T1 chain: CWKKKPAPFAAA

Data set [2] concerns the target T2, H-Cys(Npys)-Trp-Lys-Lys-Lys-Pro-Ala-Pro-Phe-Ala-Ala-Ala-LC-PEGA resin.
T2 chain: CWKKKPAPFAAA

B1: Proteinase K Molecular Biology, SIGMA Catalog No. P-4850 (protein)
chain: AAQTNAPWGLARISSTSPGTSTYYYDESAGQGSCVYVIDTGIEASHPEFEGRAQMVKTYYYSSRDGNGHGTHCAGTVGSRTYGVAKKTQLFGVKVLDDNGSGQYSTIIAGMDFVASDKNNRNCPKGVVASLSLGGGYSSSVNSAAARLQSSGVMVAVAAGNNNADARNYSPASEPSVCTVGASDRYDRRSSFSNYGSVLDIFGPGTSILSTWIGGSTRSISGTSMATPHVAGLAAYLMTLGKTTAASACRYIADTANKGDLSNIPFGTVNLLAYNNYQA
For B1, in data set [1], the “absorbance of supernatant at 280 nm after hydrolysis at pH 8.0, 25.5 ug/mL Proteinase K” value is recorded as “the Proteinase K did release a cleavage product containing tryptophan from the EuMac-Peptide-PEGA-Beads”; the “luminescence of beads before and after 115 min of Proteinase K hydrolysis” value is “The drastic difference in luminescence before and after Proteinase K hydrolysis demonstrated that the EuMac-labeled part of the peptide was released from the bead”. For the same protein, in data set [2], the “absorbance of supernatant (275 nm and 350 nm peaks) after hydrolysis at pH 7.1, 15.1 ug/mL Proteinase K” value is on record as “the release of the free peptide was much greater for the Proteinase K sample”; the “absorbance of supernatant with time after hydrolysis at pH 8.01, 14.2 and 28.4 ug/mL Proteinase K” value is “demonstrate that Proteinase K cleaves a peptide from the Peptide-PEGA-Beads”; the “ratio of cleaved peptide, 28.4 vs. 14.2 ug/mL Proteinase K (absorbance at 280 nm)” value is “The doubling, of the enzyme concentration resulted in an approximately 1.3 fold increase in cleaved peptide”.
